# In US9382546:
# Test system: recombinant overlapping peptides (ROP) fusion protein composed of 20 overlapping peptides covering HIV Nef (Lai) interspersed with Factor Xa sites (IEGR)
substance,measurement,value
protease Factor Xa (New England Biolabs),"protease digestion, SDS page and mass spectrometry",the ROP protein was cut by Factor Xa into overlapping peptides (ROP peptides) as shown in the mass spectrometry
